{"source": "patent CN113754773A", "about": "(SUNSHINE GUOJIAN PHARMACEUTICAL SHANGHAI CO LTD, dated 2021)", "binders": {"B1": {"name": "抗PD-L1单抗 (M8) (antibody, human IgG1, kappa, V domains shown)", "VH": "QVQLQQSGGGLVKPSQSLSLTCTVSGFSLTSYGVHWVRQPPGKGLEWIGLIWSGGGTDYNPSLKSRLTISRDTSKNQVSFKISSLTAADTAVYYCARQLGLRAMDYWGQGTSVTVSS", "VL": "EIVLTQSPDFLSVTPKEKVTITCRASQSIGTTIHWYQQKPDQSPKLLIKYASQSFSGVPSRFSGSGSGTDFTLTINSVEAEDAATYYCQQSNSWPLTFGAGTKLEIKR", "notes": "also called 抗人PD-L1单抗M8; anti-PD-L1 mAb"}, "B2": {"name": "anti-PD1×PDL1 BsAb (bispecific antibody, human IgG1, kappa)", "heavy": "not shown", "light": "EIVLTQSPDFLSVTPKEKVTITCRASQSIGTTIHWYQQKPDQSPKLLIKYASQSFSGVPSRFSGSGSGTDFTLTINSVEAEDAATYYCQQSNSWPLTFGAGTKLEIKRTVAAPSVFIFPPSDEQLKSGTASVVCLLNNFYPREAKVQWKVDNALQSGNSQESVTEQDSKDSTYSLSSTLTLSKADYEKHKVYACEVTHQGLSSPVTKSFNRGEC", "notes": "also called 抗PD1×PDL1双抗; 抗PD1×PDL1双特异性抗体"}}, "key": {"PDL1-ECD-His蛋白": {"molecular_target": "T1, PDL1-ECD-His蛋白 (human, UniProt Q9NZQ7 19-238)", "T1 construct": "extracellular domain; Made in house in HEK-293E cells; also called PD-L1抗原", "T1 sequence (Q9NZQ7 other isoform, or with tags, fused parts or gaps)": "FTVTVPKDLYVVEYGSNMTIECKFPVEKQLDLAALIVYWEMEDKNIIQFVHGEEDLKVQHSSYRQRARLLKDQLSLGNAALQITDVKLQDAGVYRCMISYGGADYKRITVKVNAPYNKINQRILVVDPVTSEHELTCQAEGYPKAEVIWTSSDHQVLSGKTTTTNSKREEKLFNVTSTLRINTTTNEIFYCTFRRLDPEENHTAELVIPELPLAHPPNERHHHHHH", "experiment": "ELISA, PDL1-ECD-His coated, HRP mouse anti-human Fab"}, "[1]": {"molecular_target": "PD-L1 on PD-L1 aAPC/CHO-K1 cells (Promega PD-1/PD-L1 Blockade Bioassay) (UniProt Q9NZQ7 19-290, limits assumed)", "sequence (Q9NZQ7 19-290 limits assumed)": "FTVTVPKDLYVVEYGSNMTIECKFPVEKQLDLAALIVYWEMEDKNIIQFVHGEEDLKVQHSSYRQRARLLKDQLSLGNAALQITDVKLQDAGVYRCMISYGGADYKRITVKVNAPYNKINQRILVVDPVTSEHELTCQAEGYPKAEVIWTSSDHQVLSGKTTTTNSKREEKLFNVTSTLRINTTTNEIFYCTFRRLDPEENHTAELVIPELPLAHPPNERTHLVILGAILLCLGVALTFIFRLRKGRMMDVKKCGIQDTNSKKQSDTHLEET", "experiment": "cell-based or functional assay"}, "PD-L1 on N87-PDL1 cells": {"molecular_target": "T2, PD-L1 on N87-PDL1 cells (UniProt Q9NZQ7 19-290, limits assumed)", "T2 construct": "whole, on cells; also called N87-PDL1细胞", "T2 sequence (Q9NZQ7 19-290 limits assumed)": "as above", "experiment": "flow cytometry on N87-PDL1 cells, goat anti-human IgG-FITC"}, "PD1-ECD-hFc蛋白 [2]": {"molecular_target": "T3, PD1-ECD-hFc蛋白 (human, UniProt Q15116 25-170)", "T3 construct": "extracellular domain; Made in house in HEK-293E cells; also called PD-1抗原; not shown: hFc at the C-terminus", "T3 sequence (Q15116 25-170)": "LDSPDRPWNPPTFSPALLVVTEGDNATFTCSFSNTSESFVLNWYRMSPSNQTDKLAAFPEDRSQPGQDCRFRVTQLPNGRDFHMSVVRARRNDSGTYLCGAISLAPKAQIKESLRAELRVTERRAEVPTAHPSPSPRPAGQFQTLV", "experiment": "bridging ELISA: PD1-ECD-hFc coated, antibody titrated, then PDL1-ECD-His at 1000ng/ml, read with HRP-anti-His (both antigens bound at once)"}, "PD1-ECD-hFc蛋白 [3]": {"molecular_target": "T3, PD1-ECD-hFc蛋白", "experiment": "ELISA, PD1-ECD-hFc coated, HRP mouse anti-human Fab"}, "[4]": {"molecular_target": "PD-1 on PD1 effector cells (Promega PD-1/PD-L1 Blockade Bioassay) (UniProt Q15116 25-288, limits assumed)", "sequence (Q15116 25-288 limits assumed)": "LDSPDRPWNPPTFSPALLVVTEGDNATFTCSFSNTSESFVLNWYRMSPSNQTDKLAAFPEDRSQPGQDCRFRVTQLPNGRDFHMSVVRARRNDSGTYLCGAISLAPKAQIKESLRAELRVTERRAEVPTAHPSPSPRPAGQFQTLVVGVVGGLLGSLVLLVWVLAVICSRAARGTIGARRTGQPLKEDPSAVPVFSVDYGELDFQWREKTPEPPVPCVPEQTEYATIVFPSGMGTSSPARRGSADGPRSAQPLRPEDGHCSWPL", "experiment": "cell-based or functional assay"}, "[5]": {"molecular_target": "T4, PD-1 on CHO stable cells (PD-1/CHO) (UniProt Q15116 25-288, limits assumed)", "T4 construct": "whole, on cells; also called 细胞表面表达PD-1的CHO稳转细胞; PD-1/CHO细胞", "T4 sequence (Q15116 25-288 limits assumed)": "as above", "experiment": "flow cytometry on CHO cells stably expressing PD-1, goat anti-human IgG-FITC"}}, "data": [{"binder": "B1", "values": [{"measurement": "EC50", "setting": "PDL1-ECD-His蛋白", "value": 0.27, "unit": "nM"}, {"measurement": "IC50, luminescence (PD-1/PD-L1 Blockade Bioassay)", "setting": "[1]", "value": 0.42, "unit": "nM"}, {"measurement": "EC50", "setting": "PD-L1 on N87-PDL1 cells", "value": 0.11, "unit": "nM"}]}, {"binder": "B2", "values": [{"measurement": "EC50", "setting": "PD1-ECD-hFc蛋白 [2]", "value": 0.36, "unit": "nM"}, {"measurement": "EC50", "setting": "PD1-ECD-hFc蛋白 [3]", "value": 0.3, "unit": "nM"}, {"measurement": "EC50", "setting": "PDL1-ECD-His蛋白", "value": 0.29, "unit": "nM"}, {"measurement": "IC50, luminescence (PD-1/PD-L1 Blockade Bioassay)", "setting": "[4]", "value": 0.24, "unit": "nM"}, {"measurement": "IC50, luminescence (PD-1/PD-L1 Blockade Bioassay)", "setting": "[1]", "value": 0.24, "unit": "nM"}, {"measurement": "EC50", "setting": "PD-L1 on N87-PDL1 cells", "value": 0.15, "unit": "nM"}, {"measurement": "EC50", "setting": "[5]", "value": 1.43, "unit": "nM"}]}]}
